Data as given in US20260209386A1 (MYTHIC THERAPEUTICS, published 2026).

T1: Human PTK7 Protein, His Tag, Acro Biosystems (human, UniProt Q13308 31-704)
T1 construct: Bought recombinant protein; also called CCK4; not shown: His tag
T1 sequence: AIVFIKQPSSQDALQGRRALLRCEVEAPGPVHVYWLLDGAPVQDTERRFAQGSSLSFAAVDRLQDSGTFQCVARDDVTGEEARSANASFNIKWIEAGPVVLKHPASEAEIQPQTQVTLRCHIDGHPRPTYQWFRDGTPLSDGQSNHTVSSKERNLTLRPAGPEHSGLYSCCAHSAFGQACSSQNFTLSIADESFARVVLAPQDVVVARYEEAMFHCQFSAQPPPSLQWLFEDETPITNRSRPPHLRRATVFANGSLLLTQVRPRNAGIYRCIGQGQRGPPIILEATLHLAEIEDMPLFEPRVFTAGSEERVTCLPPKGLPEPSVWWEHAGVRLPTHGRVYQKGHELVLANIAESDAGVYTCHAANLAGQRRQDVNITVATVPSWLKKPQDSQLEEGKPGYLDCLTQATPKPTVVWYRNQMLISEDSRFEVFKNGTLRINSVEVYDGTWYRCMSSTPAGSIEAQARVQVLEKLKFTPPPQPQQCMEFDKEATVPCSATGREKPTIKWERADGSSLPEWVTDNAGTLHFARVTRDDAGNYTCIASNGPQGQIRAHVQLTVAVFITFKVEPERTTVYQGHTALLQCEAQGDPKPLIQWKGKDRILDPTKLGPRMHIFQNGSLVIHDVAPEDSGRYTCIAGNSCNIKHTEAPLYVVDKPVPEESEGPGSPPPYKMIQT

T2: Human PTK7 Protein, His Tag (Acro Biosystems) (human, UniProt Q13308 31-704)
T2 construct: Bought His-tagged recombinant human PTK7; also called CCK4; Tyrosine-protein kinase-like 7
T2 sequence: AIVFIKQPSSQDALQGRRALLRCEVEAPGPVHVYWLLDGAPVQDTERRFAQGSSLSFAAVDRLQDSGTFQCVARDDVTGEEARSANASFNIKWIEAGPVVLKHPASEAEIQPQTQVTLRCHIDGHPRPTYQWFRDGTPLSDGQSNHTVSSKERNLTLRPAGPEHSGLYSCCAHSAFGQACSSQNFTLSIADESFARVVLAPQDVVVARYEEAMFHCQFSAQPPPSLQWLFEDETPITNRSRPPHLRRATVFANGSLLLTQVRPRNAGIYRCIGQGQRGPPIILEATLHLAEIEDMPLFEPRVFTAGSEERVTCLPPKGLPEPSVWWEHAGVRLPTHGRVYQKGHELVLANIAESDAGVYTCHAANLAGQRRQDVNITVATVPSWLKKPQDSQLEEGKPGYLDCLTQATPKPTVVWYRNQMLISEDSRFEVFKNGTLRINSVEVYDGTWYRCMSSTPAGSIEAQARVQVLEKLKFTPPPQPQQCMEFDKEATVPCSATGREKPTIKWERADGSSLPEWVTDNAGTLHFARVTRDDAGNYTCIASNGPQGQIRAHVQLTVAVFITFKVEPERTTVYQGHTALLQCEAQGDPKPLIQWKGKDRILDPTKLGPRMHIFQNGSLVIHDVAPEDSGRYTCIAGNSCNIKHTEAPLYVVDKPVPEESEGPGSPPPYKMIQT


What was measured:
[1] = target: T1, Human PTK7 Protein, His Tag, Acro …; assay: BLI (Octet), antibody on anti-human Fc sensor, 50 nM PTK7 at pH 7.4, dissociation at pH 7.4 or 5.4; 1 = pH dependent binding relative to parent
[2] = target: T2, Human PTK7 Protein, His Tag (Acro …); assay: BLI (Octet), antibody on anti-human Fc sensor, 50 nM PTK7; 1 = pH dependent binding

Row | Binder | binding result [1] | binding result [2]
1 | MYT10897 (antibody, V domains shown, MYT9345 variant, substitution at VH pos 52 (H2 03), no Ala mark) VH: EVQLVESGGGLVQPGGSLRLSCTASGFSLSNYVMNWVRQAPGKGLEWVGIIHSSGSTYYASWAKGRFTISRDTSKNTVYLQMNSLRAEDTAVYFCARGLYLWGQGTLVTVSS VL: EIVMTQSPSTLSASVGDRVIITCQSSQSVYNNNLLAWYQQKPGKAPKLLIYYTSNLASGVPSRFSGSGSGAEFTLTISSLQPDDFATYYCQGGYNGNIYAFGQGTKLTVL | binds | 
2 | MYT10889 (antibody, V domains shown, MYT9345 variant, His at VH pos 30 (H1 05)) VH: EVQLVESGGGLVQPGGSLRLSCTASGFSLHNYVMNWVRQAPGKGLEWVGIIDSSGSTYYASWAKGRFTISRDTSKNTVYLQMNSLRAEDTAVYFCARGLYLWGQGTLVTVSS VL: EIVMTQSPSTLSASVGDRVIITCQSSQSVYNNNLLAWYQQKPGKAPKLLIYYTSNLASGVPSRFSGSGSGAEFTLTISSLQPDDFATYYCQGGYNGNIYAFGQGTKLTVL | binds | 
3 | MYT10903 (antibody, V domains shown, MYT9345 variant, His at VH pos 58 (H2 09)) VH: EVQLVESGGGLVQPGGSLRLSCTASGFSLSNYVMNWVRQAPGKGLEWVGIIDSSGSTHYASWAKGRFTISRDTSKNTVYLQMNSLRAEDTAVYFCARGLYLWGQGTLVTVSS VL: EIVMTQSPSTLSASVGDRVIITCQSSQSVYNNNLLAWYQQKPGKAPKLLIYYTSNLASGVPSRFSGSGSGAEFTLTISSLQPDDFATYYCQGGYNGNIYAFGQGTKLTVL | binds | 
4 | MYT10898 (antibody, V domains shown, MYT9345 variant, His at VH pos 53 (H2 04)) VH: EVQLVESGGGLVQPGGSLRLSCTASGFSLSNYVMNWVRQAPGKGLEWVGIIDHSGSTYYASWAKGRFTISRDTSKNTVYLQMNSLRAEDTAVYFCARGLYLWGQGTLVTVSS VL: EIVMTQSPSTLSASVGDRVIITCQSSQSVYNNNLLAWYQQKPGKAPKLLIYYTSNLASGVPSRFSGSGSGAEFTLTISSLQPDDFATYYCQGGYNGNIYAFGQGTKLTVL | binds | 
5 | MYT10916 (antibody, V domains shown, MYT9345 variant, His at VH pos 101 (H3 06)) VH: EVQLVESGGGLVQPGGSLRLSCTASGFSLSNYVMNWVRQAPGKGLEWVGIIDSSGSTYYASWAKGRFTISRDTSKNTVYLQMNSLRAEDTAVYFCARGLYHWGQGTLVTVSS VL: EIVMTQSPSTLSASVGDRVIITCQSSQSVYNNNLLAWYQQKPGKAPKLLIYYTSNLASGVPSRFSGSGSGAEFTLTISSLQPDDFATYYCQGGYNGNIYAFGQGTKLTVL | binds | 
6 | MYT10888 (antibody, V domains shown, MYT9345 variant, His at VH pos 29 (H1 04)) VH: EVQLVESGGGLVQPGGSLRLSCTASGFSHSNYVMNWVRQAPGKGLEWVGIIDSSGSTYYASWAKGRFTISRDTSKNTVYLQMNSLRAEDTAVYFCARGLYLWGQGTLVTVSS VL: EIVMTQSPSTLSASVGDRVIITCQSSQSVYNNNLLAWYQQKPGKAPKLLIYYTSNLASGVPSRFSGSGSGAEFTLTISSLQPDDFATYYCQGGYNGNIYAFGQGTKLTVL | binds | 
7 | MYT10905 (antibody, V domains shown, MYT9345 variant, His at VH pos 60 (H2 11)) VH: EVQLVESGGGLVQPGGSLRLSCTASGFSLSNYVMNWVRQAPGKGLEWVGIIDSSGSTYYHSWAKGRFTISRDTSKNTVYLQMNSLRAEDTAVYFCARGLYLWGQGTLVTVSS VL: EIVMTQSPSTLSASVGDRVIITCQSSQSVYNNNLLAWYQQKPGKAPKLLIYYTSNLASGVPSRFSGSGSGAEFTLTISSLQPDDFATYYCQGGYNGNIYAFGQGTKLTVL | binds | 

Next, values leading:

Row | binding result [1] | binding result [2] | Binder
8 | binds |  | MYT10895 (antibody, V domains shown, MYT9345 variant, His at VH pos 50 (H2 01)) VH: EVQLVESGGGLVQPGGSLRLSCTASGFSLSNYVMNWVRQAPGKGLEWVGHIDSSGSTYYASWAKGRFTISRDTSKNTVYLQMNSLRAEDTAVYFCARGLYLWGQGTLVTVSS VL: EIVMTQSPSTLSASVGDRVIITCQSSQSVYNNNLLAWYQQKPGKAPKLLIYYTSNLASGVPSRFSGSGSGAEFTLTISSLQPDDFATYYCQGGYNGNIYAFGQGTKLTVL
9 | binds |  | MYT10911 (antibody, V domains shown, MYT9345 variant, His at VH pos 96 (H3 01)) VH: EVQLVESGGGLVQPGGSLRLSCTASGFSLSNYVMNWVRQAPGKGLEWVGIIDSSGSTYYASWAKGRFTISRDTSKNTVYLQMNSLRAEDTAVYFCHRGLYLWGQGTLVTVSS VL: EIVMTQSPSTLSASVGDRVIITCQSSQSVYNNNLLAWYQQKPGKAPKLLIYYTSNLASGVPSRFSGSGSGAEFTLTISSLQPDDFATYYCQGGYNGNIYAFGQGTKLTVL
10 | binds |  | MYT10896 (antibody, V domains shown, MYT9345 variant, His at VH pos 51 (H2 02)) VH: EVQLVESGGGLVQPGGSLRLSCTASGFSLSNYVMNWVRQAPGKGLEWVGIHDSSGSTYYASWAKGRFTISRDTSKNTVYLQMNSLRAEDTAVYFCARGLYLWGQGTLVTVSS VL: EIVMTQSPSTLSASVGDRVIITCQSSQSVYNNNLLAWYQQKPGKAPKLLIYYTSNLASGVPSRFSGSGSGAEFTLTISSLQPDDFATYYCQGGYNGNIYAFGQGTKLTVL
11 | binds |  | MYT10918 (antibody, V domains shown, MYT9345 variant, Ala at VH pos 52 (H2 03)) VH: EVQLVESGGGLVQPGGSLRLSCTASGFSLSNYVMNWVRQAPGKGLEWVGIIASSGSTYYASWAKGRFTISRDTSKNTVYLQMNSLRAEDTAVYFCARGLYLWGQGTLVTVSS VL: EIVMTQSPSTLSASVGDRVIITCQSSQSVYNNNLLAWYQQKPGKAPKLLIYYTSNLASGVPSRFSGSGSGAEFTLTISSLQPDDFATYYCQGGYNGNIYAFGQGTKLTVL
12 | binds |  | MYT10891 (antibody, V domains shown, MYT9345 variant, His at VH pos 32 (H1 07)) VH: EVQLVESGGGLVQPGGSLRLSCTASGFSLSNHVMNWVRQAPGKGLEWVGIIDSSGSTYYASWAKGRFTISRDTSKNTVYLQMNSLRAEDTAVYFCARGLYLWGQGTLVTVSS VL: EIVMTQSPSTLSASVGDRVIITCQSSQSVYNNNLLAWYQQKPGKAPKLLIYYTSNLASGVPSRFSGSGSGAEFTLTISSLQPDDFATYYCQGGYNGNIYAFGQGTKLTVL
13 |  | binds | MYT11021 (antibody, V domains shown, MYT9359 LC variant; captured on anti-human Fc sensor) VH: EVQLVESGGGLVQPGGSLRLSCTASGFSLSSYAMGWVRQAPGKGLEWVGFINAGGNTYYANWAKGRFTISRDTSKNTVYLQMNSLRAEDTAVYFCARRYSRASGWYDLWGQGTLVTVSS VL: EIVMTQSPSTLSASVGDRVIITCQASQSISSYLAWYQQKPGKAPKLLIYAASTLASGVPSRFSGSGSGAEFTLTISSLQPDDFATYYCQSYSYSSGIDYHDVFGQGTKLTVL
14 |  | binds | MYT11025 (antibody, V domains shown, MYT9359 LC alanine variant; captured on anti-human Fc sensor) VH: EVQLVESGGGLVQPGGSLRLSCTASGFSLSSYAMGWVRQAPGKGLEWVGFINAGGNTYYANWAKGRFTISRDTSKNTVYLQMNSLRAEDTAVYFCARRYSRASGWYDLWGQGTLVTVSS VL: EIVMTQSPSTLSASVGDRVIITCQASQSISSYLAWYQQKPGKAPKLLIYAASTLASGVPSRFSGSGSGAEFTLTISSLQPDDFATYYCQSYSYSSGIAYGDVFGQGTKLTVL
15 |  | binds | MYT11026 (antibody, V domains shown, MYT9359 LC alanine variant; captured on anti-human Fc sensor) VH: EVQLVESGGGLVQPGGSLRLSCTASGFSLSSYAMGWVRQAPGKGLEWVGFINAGGNTYYANWAKGRFTISRDTSKNTVYLQMNSLRAEDTAVYFCARRYSRASGWYDLWGQGTLVTVSS VL: EIVMTQSPSTLSASVGDRVIITCQASQSISSYLAWYQQKPGKAPKLLIYAASTLASGVPSRFSGSGSGAEFTLTISSLQPDDFATYYCQSYSYSSGIDYGAVFGQGTKLTVL
16 |  | binds | MYT11023 (antibody, V domains shown, MYT9359 LC variant; captured on anti-human Fc sensor) VH: EVQLVESGGGLVQPGGSLRLSCTASGFSLSSYAMGWVRQAPGKGLEWVGFINAGGNTYYANWAKGRFTISRDTSKNTVYLQMNSLRAEDTAVYFCARRYSRASGWYDLWGQGTLVTVSS VL: EIVMTQSPSTLSASVGDRVIITCQASQSISSYLAWYQQKPGKAPKLLIYAASTLASGVPSRFSGSGSGAEFTLTISSLQPDDFATYYCQSYSYSSGIDYGDHFGQGTKLTVL
